Measurements from patent US10131920B2, “Nucleic acid molecules” (MEDIMMUNE LIMITED, priority 2013, dated 2018).

Tests used:
[1] = system: GFPY40 reporter (GFP containing an amber codon) in HEK293 cells stably expressing pylRS; assay: Amber suppression-dependent GFP expression (GFPY40 reporter), transient transfection, flow cytometry; format: cell-based
Description: (§1) To assess the function of the tRNA variants, an in vitro assay was established where cells are transiently transfected with a tRNA construct and a reporter construct encoding GFP containing an amber codon interrupting its reading frame (GFPY40). HEK293 cells stably expressing pylRS were transiently transfected with various tRNA constructs (1 ug) and the GFPY40 reporter (1 ug). In the absence of elements that support amber suppression, a truncated GFP protein is generated and the cell is not fluorescent. However, the introduction of a functional tRNA and the presence of a nnAA that supports amber suppression allows for the production of full length GFP resulting in fluorescent cells. The level of GFP expression reflects the efficiency of amber suppression and is quantified by flow cytometry. tRNA genes encoding wild type tRNApyl (WT tRNA), or containing mutations in the B-box (B tRNA—SEQ ID No 9), in both the A and B box (A2B tRNA—SEQ ID No 10), or in the A box (A1 tRNA-SEQ ID No 7; or A2 tRNA SEQ ID No 11), all under control of the H1 promoter were generated by site directed mutagenesis and assayed. The H1 promoter ensured that the variants were expressed and allowed us to examine the functional effects of the mutations introduced into the tRNA genes. In addition a sample transfected with GFPY40 alone was generated to establish background GFP levels. The transfected cells were grown in presence of the aminoacid analogue lys azide (2 mM) and incubated for 18 hours. GFP fluorescence was then assayed by flow cytometry and mean fluorescence intensity determined for each sample. Data were analysed with FCS Express and the mean fluorescence intensity of each sample determined using markers that constrain the data set to cells showing fluorescence above negative controls.
To begin to assess whether the tRNA mutations can support expression of the tRNA we assayed tRNA constructs encoding the wild type tRNA in the absence of the H1 promoter. Constructs encoding wild type tRNApyl (WT tRNA) or containing mutations in the B-box (B tRNA—SEQ ID No 9) or in both the A and B box (A2B; A2B tRNA—SEQ ID No 10) were assayed using our in vitro amber suppression assay described above. WT tRNA under control of the H1 promoter (H1-tRNA) was used as a positive control, and in addition one sample was transfected only with the GFPY40 reporter to illustrate background amber suppression in the absence of tRNA. The transfected cells were exposed to 2 mM lys-azide nnAA and cells incubated for three days. GFP expression was examined by flow cytometry and mean fluorescence intensity determined.
Two copies of the WT, B, or A2B tRNA were cloned in tandem to generate a single vector containing two copies of WT, B, or A2B tRNA. To assess the effect of increased gene doses by these constructs, cells expressing WTpylRS were transiently transfected with the tRNA constructs and the GFPY40 reporter construct and GFP expression assayed after two days.
The activity of each construct was assessed by transient transfection into cells stably expressing WT pylRS with the GFPY40 reporter as described above. For this experiment, 1 ug of a PCR product encoding each of the indicated constructs was used. In each case, cells were exposed to the lys azide nnAA for three days and GFP levels assayed by flow cytometry. Mean fluorescence intensities were determined for each sample and plotted (FIG. 8).

[2] = system: GFPY40 reporter in 3H7 cells; assay: Amber suppression-dependent GFP expression (GFPY40 reporter), transient transfection of 3H7 cells, flow cytometry; format: cell-based; settings: 1 ug GFPY40 and 1 ug tRNA expression vector, lys-azide, three days
Description: as §1, with “controls. […] The constructs thus are functional and may contain the necessary genetic sequence to enable the expression of the tRNA also in the absence of an upstream promoter element such as the H1 promoter.” for “controls.”
Having established that the B mutation introduced into the pyltRNA sequence enabled expression of the tRNA that supported amber suppression we then asked whether this mutation affected the orthogonality of the tRNA and led to the incorporation of natural amino acids. To do this 3H7 cells were transiently transfected with expression constructs encoding WT-tRNA, B-tRNA, H1-tRNA and H1-B tRNA along with the GFPY40 reporter. Transfected cells were grown in the presence of 2 mM lys azide or absence of nnAA as indicated (FIG. 6), and GFP expression assessed by flow cytometry after three days. In addition, a sample transfected only with GFPY40 was examined to determine background amber suppression levels in the absence of tRNA. […] A comparison of GFP expression between the WT tRNA (MFI 33,781) and tRNA B (232,505) lacking extragenic promoter elements confirms that the B mutation generates a functional intragenic promoter. Indeed, the B tRNA construct enabled a seven-fold increase in the level of amber suppression dependent expression of GFP over WT tRNA.
We also tested the utility of a bicistronic tRNA expression construct for its ability to express tRNApyl. Here, the murine tRNA Glu and tRNA Asp were utilized. In each case, multiple repeats of the constructs were generated to increase activity (3×Glu-pyl and 2×Asp-pyl). Here, 3H7 cells were transiently transfected with 1 ug of the reporter construct GFPY40 and 1 ug of the indicated tRNA expression vectors (FIG. 11) and incubated with lys-azide for three days. Data were collected by flow cytometry and mean fluorescence intensities for each sample were plotted. […] The construct consisting of the 7SL WT tRNA (MFI=312) was included as a metric for low efficiency. In addition cell lines containing only the GFPY40 reporter were used as negative controls (MFI=0).

B1: 7SL B tRNA: tRNA-B downstream of the 7SL promoter 5′ region (nucleic acid)
DNA: CCCAGTTGATGACGTCACCATACCACAGCTTCTAGTGCTATTCTGCGCCGGTATCCGACCACCAGGAAACCTGATCATGTAGATCGAATGGACTCTAAATCCGTTCAGCCGGGTTCGATTCCCGGGGTTTCCGGACAAGTGCGGTTTTT
modifications: Synthetic sequence 7SL tRNA-B construct
notes: tRNA-B downstream of the 7SL promoter 5′ region
- GFP MFI, FIG. 9 ([1]; 1 ug GFPY40 reporter and 1 ug tRNA expression plasmid): 167,024
- GFP MFI, FIG. 8 ([1]; 1 ug PCR product of each construct, lys azide nnAA, three days): 265,396
- GFP MFI, FIG. 10 ([1]; cells stably expressing WTpylRS, lys azide, three days): 520
- GFP MFI, FIG. 11 [2]: 520
